Reference: US20240262901A1 (published 2024)

Tests used:
[1] = target: Rat RGMa (rat, UniProt D4A188 170-424); test: BIAcore; Ab captured via anti-hIgG Fc, antigen injected
Method: (§1) The potency data correlates with the affinity data (see Table 5). The affinity of h5F9.23 affinity matured Abs towards human RGMa, rat RGMa, and human RGMc were determined by BIAcore analysis (Table 5). Testing Abs were captured to the surface of a CM5 chip via anti-hIgG Fc Ab, and serially diluted antigens were injected. Association and dissociation rates were monitored for 5 and 10 min respectively. Sensorgrams were fitted by global analysis using the BIAevaluation 4.0.1 software for a 1:1 Langmuir binding model. The equilibrium dissociation constants (KD) were calculated from kinetic rate constants (off rate kd and on rate ka): KD=kd/ka.

[2] = target: T1, human RGMa (human, UniProt Q96B86 48-422, limits assumed, biotinylated in the indirect ELISA); test: as above
T1 construct: also called hRGMa; biotin hRGMa
T1 sequence: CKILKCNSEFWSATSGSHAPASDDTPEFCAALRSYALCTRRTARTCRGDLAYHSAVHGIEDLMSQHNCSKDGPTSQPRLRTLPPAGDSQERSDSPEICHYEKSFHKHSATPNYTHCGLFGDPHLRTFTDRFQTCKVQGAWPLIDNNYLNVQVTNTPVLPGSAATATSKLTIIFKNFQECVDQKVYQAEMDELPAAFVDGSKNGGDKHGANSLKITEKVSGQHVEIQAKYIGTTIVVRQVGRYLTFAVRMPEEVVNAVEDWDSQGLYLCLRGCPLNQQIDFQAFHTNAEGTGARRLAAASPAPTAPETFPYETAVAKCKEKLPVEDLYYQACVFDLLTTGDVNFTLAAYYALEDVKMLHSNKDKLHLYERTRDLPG
Method: as §1

Sequence of Rat RGMa (D4A188 entry or part of it): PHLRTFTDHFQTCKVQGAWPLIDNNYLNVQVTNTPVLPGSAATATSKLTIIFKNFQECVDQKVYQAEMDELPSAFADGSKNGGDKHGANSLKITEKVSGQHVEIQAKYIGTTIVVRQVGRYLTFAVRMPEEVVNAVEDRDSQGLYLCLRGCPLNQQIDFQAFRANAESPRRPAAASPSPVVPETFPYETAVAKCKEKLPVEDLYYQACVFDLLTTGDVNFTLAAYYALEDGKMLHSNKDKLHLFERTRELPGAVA

Kd [1]: 2.1 nM
koff [1]: 0.0017 s⁻¹
kon [1]: 830000 M⁻¹ s⁻¹
kon [2]: 6e+06 M⁻¹ s⁻¹
B1: humanized antibody 5F9.23 (antibody, V domains shown)
VH: EVQLVESGGGLVQPGGSLRLSCAASGFTFSNYGMNWIRQAPGKGLEWIGMIYYDSSEKHYADSVKGRFTISRDNSKNTLYLQMNSLRAEDTAVYYCAKGTTPDYWGQGTMVTVSS
VL: DVVLTQSPLSLPVTLGQPASISCRSSQSLEYSDGYTFLEWFQQRPGQSPRLLIYEVSNRFSGVPDRFSGSGSGTDFTLKISRVEAEDVGVYYCFQATHDPLTFGQGTKLEIKR
notes: also called h5F9.23; H5F9.23
